Laboratory results reported in patent publication US6518063.

Target: OSF2/CBFA1b (lacks 22 aa of exon 8) deletion of 22 aa encoded by exon 8 (Homo sapiens) (UniProt Q13950)
Experiment: cell_activity
Conditions: p6OSE2-luc, F9 cells

OSF2/CBFA1b (lacks 22 aa of exon 8) deletion of 22 aa encoded by exon 8 (Homo sapiens), sequence (Q13950 whole entry, stated change not applied): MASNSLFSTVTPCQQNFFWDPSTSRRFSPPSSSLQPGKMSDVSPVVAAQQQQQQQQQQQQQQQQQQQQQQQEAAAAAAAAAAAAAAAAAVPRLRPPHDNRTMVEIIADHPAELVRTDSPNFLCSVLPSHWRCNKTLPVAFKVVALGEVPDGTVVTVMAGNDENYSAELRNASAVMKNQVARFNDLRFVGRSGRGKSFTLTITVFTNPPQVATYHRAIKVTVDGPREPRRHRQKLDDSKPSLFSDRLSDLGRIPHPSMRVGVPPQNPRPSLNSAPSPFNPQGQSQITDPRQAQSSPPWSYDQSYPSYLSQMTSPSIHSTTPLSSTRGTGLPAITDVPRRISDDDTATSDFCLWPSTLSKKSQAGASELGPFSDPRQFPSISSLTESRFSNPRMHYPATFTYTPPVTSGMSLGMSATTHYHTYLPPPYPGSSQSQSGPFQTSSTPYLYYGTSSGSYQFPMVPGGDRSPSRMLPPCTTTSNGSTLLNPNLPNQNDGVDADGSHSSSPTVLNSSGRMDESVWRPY

For “AGCTGCAATCACCAACCACAGCA (double strand) [Osteocalcin (OG2) OSE2]”, the activity (fold activation) was 40.
